Series [1] addresses T1, Avi-tagged NFR5 (residues 276-595, Avitag) (Lotus japonicus, biotinylated Avi tag implied by capture on streptavidin biosensors; site not given).
T1 construct: NFR5 intracellular domain (juxtamembrane, pseudokinase, C-terminal tail) with an N-terminal Avi tag, immobilised on streptavidin biosensors; also called NFR5 Avitag; AviTag NFR5
T1 chain: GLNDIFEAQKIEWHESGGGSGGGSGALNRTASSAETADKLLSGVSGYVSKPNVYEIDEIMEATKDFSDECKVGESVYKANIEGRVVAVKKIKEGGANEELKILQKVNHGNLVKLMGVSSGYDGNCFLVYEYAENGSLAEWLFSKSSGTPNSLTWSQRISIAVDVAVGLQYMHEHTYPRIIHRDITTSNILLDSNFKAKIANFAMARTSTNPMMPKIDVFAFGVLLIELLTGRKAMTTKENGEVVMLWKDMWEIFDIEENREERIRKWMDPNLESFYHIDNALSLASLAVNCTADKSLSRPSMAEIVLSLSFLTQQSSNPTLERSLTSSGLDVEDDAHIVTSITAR
Nature of the series: BLI, Avi-tagged NFR5 on streptavidin biosensors, Nb200 5-0.08 µM, 1:1 association/dissociation fit. From the text: (§1) The x-axis indicates time in seconds. The y-axis indicates the wavelength shift in nm. […] The x-axis indicates time in seconds. The y-axis indicates the wavelength shift in nm. […] Blue dotted lines demarcate fractions with complex formation, labelled as P1. Elution of excess Nb200 is labelled as P2. The x-axis indicates volume through the column in mL. The y-axis indicates the UV₂₈₀ milli absorbance units (mAu). […] The first lane, “M”, contains a molecular weight ladder, labeled to the left of the gel picture with the respective kDa amount. Lane “Inp” contains a sample of the input. Lanes “P1” contain fractions from the P1 complex section of the purification. Lanes “P2” contain fractions from the P2 section of the purification with excess Nb200. The black horizontal line over lanes indicates fractions pooled. Arrows indicate the proteins of interest.
(§2) Streptavidin (SA) biosensors (kinetic quality, Molecular devices, FortéBio) were equilibrated in Binding buffer (50 mM Tris-HCl pH 8, 200 mM NαCl, 0.01% TWEEN® 20) before use. AviTag™ NFR5 in Binding buffer was immobilized on SA sensors until 0.1 nm using an Octet® RED96 (Molecular devices, ForteBio) at 25° C. […] Unspecific binding was measured to a biotin loaded SA sensor and was subtracted from the interaction datasets.
In general terms: BLI is a label-free optical method that tracks binding on a fibre tip over time.

Series [2] addresses T2, C-terminal tailless NFR5 (residues 276-563) (Lotus japonicus).
T2 construct: Construct used for the SEC complex and the crystal structure with Nb200 (PDB 8S79)
T2 chain: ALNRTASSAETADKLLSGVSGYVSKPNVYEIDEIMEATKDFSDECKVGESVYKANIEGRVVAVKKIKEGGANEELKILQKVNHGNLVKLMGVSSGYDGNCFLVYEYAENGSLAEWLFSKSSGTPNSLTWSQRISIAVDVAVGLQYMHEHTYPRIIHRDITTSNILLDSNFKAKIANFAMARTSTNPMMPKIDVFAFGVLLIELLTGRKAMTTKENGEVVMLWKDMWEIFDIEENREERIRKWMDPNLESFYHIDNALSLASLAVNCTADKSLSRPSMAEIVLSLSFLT
Nature of the series: size exclusion chromatography of NFR5 (residues 276-563) mixed with an excess of Nb200, fractions analysed by SDS-PAGE (co-elution).

The target of series [3] is T1, Avi-tagged NFR5 (residues 276-595, …). Briefly: bio-layer interferometry; Avi-tagged NFR5 immobilised on streptavidin biosensors, Nb200 control in solution at 0.08-5 µM.
Description: as §1, §2

Series [4] shares this target. Briefly: bio-layer interferometry; Avi-tagged NFR5 WT immobilised on streptavidin biosensors, NFR5 WT in solution at 0.07-3.6 mg/mL. As for the experimental part:
(§3) An Avi-tagged version of NFR5 WT (purple) was purified and immobilized on streptavidin biosensors (top box with four-pointed stars representing streptavidin). NFR5 loaded biosensors were assayed against NFR5 WT, 2E (SEQ ID NO: 148), and 3E (SEQ ID NO: 149). […] A clear concentration dependent interaction to NFR5 WT was measured. The x-axis indicates time in seconds; the y-axis indicates nm. […] No interaction was observed. The x-axis indicates time in seconds; the y-axis indicates nm.
(§4) Streptavidin (SA) biosensors (kinetic quality, Molecular devices, FortéBio) were equilibrated in Binding buffer (50 mM Tris-HCl pH 8, 200 mM NαCl, 0.01% TWEEN® 20) before use. AviTag™ NFR5 in Binding buffer was immobilized on SA sensors until 0.1 nm using an Octet® RED96 (Molecular devices, ForteBio) at 25° C. […] Unspecific binding was measured to a biotin loaded SA sensor and was subtracted from the interaction datasets. Data was processed and analyzed in FortéBio Data Analysis 7 (Molecular devices, ForteBio) and GraphPad prism 9 (Graphstats Technologies). […]

Series [5] concerns the molecule itself. Nature of the series: dynamic light scattering, concentration series 1-6 mg/ml, self-interaction in solution. From the text: Diffusion coefficients/concentration plots were used to derive self-interaction parameters, kSI (also known as the diffusion interaction parameter kD), by linear regression in GraphPad prism 9 (Graphstats Technologies).
It was hypothesized that the exposed juxtamembrane motif could function as a hydrophobic interaction surface. […] The NFR5 pattern resembled the pattern formed by the well-known oligomer forms of Bovine Serum Albumin (FIG. 7B). Dynamic light scattering (DLS) was used to measure the in solution particle size dispersity of the NFR5 sample. […] To investigate whether this self-interaction was mediated by the juxtamembrane motif, two variants were generated with substitutions in either αA (L290E, L291E) or αA′ (V294E, Y297E, V298E) that were referred to as 2E (SEQ ID NO: 148) and 3E (SEQ ID NO: 149), respectively (FIG. 7A). It was hypothesized that the introduction of charged glutamates would abolish hydrophobic interactions engaged by the motif. […] A second DLS experiment was performed to compare the in solution self-interaction of wildtype NFR5 with 2E and 3E by measuring their self-interaction parameter (kSI) over a protein concentration series (FIGS. 7D-7F). […] Next an N-terminal Avi-tagged NFR5 was purified in order to immobilize the NFR5 intracellular domain on a streptavidin biosensor (FIGS. 4A-4D, 7G). The immobilized NFR5 was used in a bio-layer interferometry experiment to measure interaction to WT, 2E, and 3E variants (FIGS. 7H-7J).

The target in series [6] is T1, Avi-tagged NFR5 (residues 276-595, …). Nature of the series: bio-layer interferometry; Avi-tagged NFR5 WT immobilised on streptavidin biosensors, NFR5 2E in solution at 0.07-3.6 mg/mL. On the procedure: as §3, §4
For series [7] the target is unchanged. Briefly: bio-layer interferometry; Avi-tagged NFR5 WT immobilised on streptavidin biosensors, NFR5 3E in solution at 0.07-3.6 mg/mL. On the procedure: as §3, §4

Results on 5 molecules are retold here after patent publication US20240344078A1 (AARHUS UNIVERSITET, published 2024).

Where a chain is given by its changes, count along the chain named. Names may count otherwise.

B1: VHH Nb200 (VHH)
VHH: QVQLVESGGGSVQAGDSLRLSCTGPGRTDGPYVMGWFRQAPEKEREFVAAISRYGSGTYYADSVRGRFTISRDNVKNTVYLQMNSLKPEDTAIYYCNRVPPVLSWGQGTQVTVSS
notes: also called Nb2NFR5
In the case of B1, the Kd in series [1] came out at 174 nM. For the same molecule, the binding result in series [2] was “binds”.

B2: VHH Nb200 control (A51E Y60E V100E) (VHH)
VHH: B1 VHH with A50E, Y59E, V99E
notes: Negative control triple mutant of Nb200; VHHs were cloned with a C-terminal 6xHis tag; also called VHH Nb200 mutant; Nb200 A51E Y60E V100E
On to B2, for which the binding result in series [3] is “no binding (tested: 5 µM)”.

B3: NFR5 intracellular domain (residues 276-595) (receptor)
chain: ALNRTASSAETADKLLSGVSGYVSKPNVYEIDEIMEATKDFSDECKVGESVYKANIEGRVVAVKKIKEGGANEELKILQKVNHGNLVKLMGVSSGYDGNCFLVYEYAENGSLAEWLFSKSSGTPNSLTWSQRISIAVDVAVGLQYMHEHTYPRIIHRDITTSNILLDSNFKAKIANFAMARTSTNPMMPKIDVFAFGVLLIELLTGRKAMTTKENGEVVMLWKDMWEIFDIEENREERIRKWMDPNLESFYHIDNALSLASLAVNCTADKSLSRPSMAEIVLSLSFLTQQSSNPTLERSLTSSGLDVEDDAHIVTSITAR
notes: Expressed with an N-terminal thioredoxin-6xHis-TEV fusion tag that was removed by TEV protease before use; also called NFR5 WT
As for B3, the binding result in series [4] is listed as “binds”. In series [5], the “self-interaction parameter kSI” value was -14.6 mL/g.

B4: NFR5 residues 276-595, L290E/L291E (2E) (receptor)
chain: B3 chain with L15E, L16E
notes: Mutation numbers follow full-length NFR5; also called NFR5 2E; alphaA 2E
For B4, the “self-interaction parameter kSI” value in series [5] is -10.8 mL/g. For the same molecule, the binding result in series [6] is listed as “no binding (tested: 3.6 mg/mL)”.

B5: NFR5 residues 276-595, V294E Y297E V298E (3E) (receptor)
chain: B3 chain with V19E, Y22E, V23E
notes: Mutation numbers follow full-length NFR5; also called NFR5 3E; alphaA' 3E
On to B5, for which, in series [7], the binding result is on record as “no binding (tested: 3.6 mg/mL)”. In addition, the “self-interaction parameter kSI” value in series [5] is -7.1 mL/g.

Broadly, the Kd is a measure of binding affinity in units of concentration. High values mean weaker binding, low ones tighter binding.
